According to US20210403582A1 (JACOBIO PHARMACEUTICALS, published 2021):

How the values were obtained:
human LIF protein [1] = molecular target: T1, human LIF protein (human, UniProt P15018 23-202); experiment: ELISA, antigen coated 0.5 ug/ml, 293S supernatant non-heated, antibody 0.2 ug/mL
T1 construct: Bought recombinant protein (Sino Biological / Yiqiao Shenzhou 14890-HNAH) in most assays; also called recombinant human LIF protein; rhLIF
Description: (§1) Each well was coated with 100 μL of 0.5 μg/ml antigen and incubate overnight at 4° C., and the plates were washed three times with 300 μL of Wash Buffer. The plates were closed with 200 μL of Closure Buffer (2% bovine serum albumin) for 60 min at room temperature. The plates were washed three times with 300 μL of Wash Buffer. 100 μL of diluted anti-LIF antibody at different concentrations was added to each well and incubate for 1 hour at room temperature. The plates were washed 4 times with 300 μL of Wash Buffer. 100 μL of HRP-labeled goat anti-human Fc secondary antibody at a dilution of 1:5000 was added and incubate for 1 hour at room temperature. The plates were washed 6 times with 300 μL of Wash Buffer. 100 μL of H₂O₂-Amplx Color Development Solution was added for developing the color for 10 min at room temperature under dark conditions. The OD 450 value was read by an enzyme marker. Heat treatment: the expression medium was heated on the PCR machine at 70° C. for 5 min and then rapidly cooled to room temperature. Perform subsequent ELISA assays as above.

human LIF protein [2] = molecular target: T1, human LIF protein; experiment: BLI (Gator), antibody on anti-human Fc biosensor, human LIF in solution
Description: The affinity of anti-LIF antibody to human LIF protein was determined using Gator. The anti-human LIF antibody was first diluted to 5 ug/mL with PBS and then added to A-F wells in second column of the 96-well plate (200 μL per well). […] PBS was added to A-F wells in the first and third columns (200 μL per well). The 96-well plates were placed into the instrument and detected with anti-human Fc biosensor.

human LIF protein [3] = molecular target: T1, human LIF protein; experiment: ELISA, antigen coated 0.5 ug/ml, 293S supernatant heated 70 C 5 min, antibody 0.04 ug/mL
Description: as §1

human LIF protein [4] = molecular target: T1, human LIF protein; experiment: ELISA, antigen coated 0.5 ug/ml, 293S supernatant heated 70 C 5 min, antibody 1 ug/mL
Description: as §1

[5] = molecular target: T2, Mut3 heterozygous LIF protein (human LIF with residues 182-202 of …, UniProt P15018 23-201, limits assumed); experiment: western blot of 293T culture supernatants, primary antibody 1 µg/mL, HRP anti-human Fc
T2 construct: Secreted into the supernatant of transfected 293T cells; also called Mut3 protein
Description: (§2) The supernatant of 293T cells transfected with human LIF full-length gene sequence, Mut3 and Mut4 protein sequences after 3 days of culture, and the negative control of 293T cell culture supernatant were taken, 5×SDS-PAGE loading buffer was added, and boiled for 10 minutes. Then 10 μL of sample was taken for SDS-PAGE electrophoresis, and then the electrophoretic bands were transferred to PVDF membrane for western blot detection. The primary antibody for detection was 38E huH3L2 or 38E huH3L4 antibody at a concentration of 1 μg/mL, and was incubated for 2 hours at room temperature. Then washed three times in PBST buffer and diluted HRP-labeled sheep anti-human Fc secondary antibody at a dilution ration of 1:3000 was added, incubated with the secondary antibody for 2 hours at room temperature, washed three times in PBST buffer and enhanced Chemiluminescent solution (Perice, item no. 34079) was added and incubated. An Amersham Imager 600 ultra-sensitive multifunctional imager was used for detection and photograph. […] The same results were obtained in the M1 cell proliferation assay, and the results were detailed in subfigure B in FIG. 22. Therefore, the epitope sequences recognized by the 38E huH3L2 and 38E huH3L4 antibodies were determined to be […] (SEQ ID NO: 61).

[6] = molecular target: T3, Mut4 heterozygous LIF protein (human LIF with residues 166-202 of …, UniProt P15018 23-201, limits assumed); experiment: as above
T3 construct: Secreted into the supernatant of transfected 293T cells; also called Mut4 protein
Description: as §2

human LIF protein [7] = molecular target: T1, human LIF protein; experiment: ELISA, antigen coated 0.5 ug/ml, 293S supernatant non-heated, antibody 0.04 ug/mL
Description: as §1

human LIF protein [8] = molecular target: T1, human LIF protein; experiment: ELISA, antigen coated 0.5 ug/ml, 293S supernatant non-heated, antibody 1 ug/mL
Description: as §1

human LIF protein [9] = molecular target: T1, human LIF protein; experiment: ELISA, antigen coated 0.5 ug/ml, 293S supernatant heated 70 C 5 min, antibody 0.2 ug/mL
Description: as §1

human LIF protein [10] = molecular target: T1, human LIF protein; experiment: cell-based or functional assay
human LIF protein [11] = molecular target: T1, human LIF protein; experiment: competition ELISA, LIF coated, competitor LIFR-Fc 0.6125 ug/mL detected with anti-human Fc
human OSM = molecular target: T4, human OSM (human, UniProt P13725 26-221, limits assumed); experiment: ELISA, human OSM coated at 1 µg/mL, HRP goat anti-mouse Fab, A450
T4 sequence (looked up): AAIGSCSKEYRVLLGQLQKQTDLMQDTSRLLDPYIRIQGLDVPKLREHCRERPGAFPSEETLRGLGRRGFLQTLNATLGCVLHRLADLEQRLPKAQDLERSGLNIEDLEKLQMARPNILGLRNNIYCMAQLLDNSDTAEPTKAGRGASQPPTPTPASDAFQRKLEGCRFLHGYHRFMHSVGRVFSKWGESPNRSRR
Description: (§3) After washed four times with PBST, HRP-labeled goat anti-mouse Fab secondary antibodies were added and incubated at room temperature for 1 h. After washed four times with PBST, TMB colored solution was added and color developing for 10 min at room temperature. The absorption value at 450 nm was read by the enzyme maker. The data were analyzed and plotted using Origin pro 9 software.

human IL-6 = human IL-6 (human, UniProt P05231 30-212, limits assumed); experiment: ELISA, human IL-6 coated at 1 µg/mL, HRP goat anti-mouse Fab, A450
human IL-6, sequence (P05231 30-212 limits assumed): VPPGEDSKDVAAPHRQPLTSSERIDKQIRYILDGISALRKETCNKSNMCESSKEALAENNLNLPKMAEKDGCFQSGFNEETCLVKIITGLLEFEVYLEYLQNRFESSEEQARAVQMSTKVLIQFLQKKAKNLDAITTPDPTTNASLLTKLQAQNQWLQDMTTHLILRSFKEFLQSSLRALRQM
Description: as §3

human CNTF = molecular target: T5, human CNTF (human, UniProt P26441 1-200, limits assumed); experiment: ELISA, human CNTF coated at 1 µg/mL, HRP goat anti-mouse Fab, A450
T5 sequence (looked up): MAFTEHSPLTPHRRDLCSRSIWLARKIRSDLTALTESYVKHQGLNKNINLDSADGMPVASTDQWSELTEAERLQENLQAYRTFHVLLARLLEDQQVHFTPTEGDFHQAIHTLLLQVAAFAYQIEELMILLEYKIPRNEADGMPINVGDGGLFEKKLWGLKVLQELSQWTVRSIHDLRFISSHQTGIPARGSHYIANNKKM
Description: as §3

human LIF protein [12] = molecular target: T1, human LIF protein; experiment: competition ELISA: human LIF coated at 1 µg/mL, LIFR-Fc 0.6125 µg/mL added together with the antibody, A450
Description: The recombinant human LIF protein was coated on the enzyme label plate at a concentration of 1 μg/mL, LIFR protein (expressed fusedly with human FC) at a concentration of 0.6125 μg/mL was added (50 μL/well), and the anti-human LIF antibodies 38E10E1C11, P36-033 and 38E10E1C11R which is recombinantly expressed by CHO cells (SEQ ID NOs: 41 and 43) at different concentrations simultaneously were added separately (50 μL/well) and incubated for 2 h at room temperature. After washed four times with PBST, incubated with HRP-labeled goat anti-mouse FC secondary antibody for 1 h at room temperature. Then the plates were washed four times with PBST and added with TMB coloured solution in for 10 minutes. The absorption value at 450 nm is quantitated using an enzyme-labelling measuring instrument, and the data was analyzed and plotted using Origin pro 9 software.

Binder | ELISA signal (human LIF protein [1]) | Kd (human LIF protein [2]) | koff (human LIF protein [2]) | kon (human LIF protein [2]) | ELISA signal (human LIF protein [3]) | ELISA signal (human LIF protein [4]) | binding result [5] | binding result [6] | ELISA signal (human LIF protein [7]) | ELISA signal (human LIF protein [8]) | ELISA signal (human LIF protein [9]) | IC50, P-STAT3 (TYR705) in KP4 cells, HTRF kit (human LIF protein [10]) | IC50 (human LIF protein [11]) | binding result (human OSM) | binding result (human IL-6) | EC50, reversal of proliferation inhibition of M1 cells (CCK-8) (human LIF protein [10]) | binding result (human CNTF) | IC50 (read off the curve) (human LIF protein [12])
38E HuH3L2 (antibody, human IgG1, kappa, N297A, Humanized, human IgG1 / kappa) heavy: not shown light: DIHMTQSPSSLSASVGDRVTITCRASENIYSYLAWYQQKPGKSPKLLVYNAKTLAEGVPSRFSGSGSGTDFTLTISSLQPEDFATYYCQHHYVTPLTFGQGTKLEIKRTVAAPSVFIFPPSDEQLKSGTASVVCLLNNFYPREAKVQWKVDNALQSGNSQESVTEQDSKDSTYSLSSTLTLSKADYEKHKVYACEVTHQGLSSPVTKSFNRGEC | 10600 | 0.0538 nM | 3.39e-05 s⁻¹ | 631000 M⁻¹ s⁻¹ | 5060 | 9450 | binds | no binding (tested: primary antibody 1 µg/mL) | 6600 | 11300 | 8780 | – | – | – | – | – | – | –
38E HuH3L4 (antibody, human IgG1, kappa, N297A, Humanized, human IgG1 / kappa) heavy: not shown light: DIHMTQSPSSLSASVGDRVTITCRASENIYSYLAWYQQKQGKSPQLLVYNAKTLAEGVPSRFSGSGSGTQFTLKINSLQPEDFATYYCQHHYVTPLTFGQGTKLEIKRTVAAPSVFIFPPSDEQLKSGTASVVCLLNNFYPREAKVQWKVDNALQSGNSQESVTEQDSKDSTYSLSSTLTLSKADYEKHKVYACEVTHQGLSSPVTKSFNRGEC | 11200 | 0.0766 nM | 4.44e-05 s⁻¹ | 579000 M⁻¹ s⁻¹ | 5300 | 9950 | binds | no binding (tested: primary antibody 1 µg/mL) | 7060 | 11900 | 9060 | 3.42 nM | – | – | – | – | – | –
38E HuH3L2-m (antibody, mouse IgG1, kappa, Humanized variable regions of 38E HuH3L2 on mouse IgG1 / kappa constant regions) heavy: EVMLVESGGGLVQPGGSLRLSCAASGFIFSSYAMSWVRQAPETRLEWVATISSGGSNTYSPDTVKGRFTISRDNSKNTLYLQMNSLRAEDTAMYYCARYYGYYFDFWGQGTLLTVSSAKTTPPSVYPLAPGSAAQTNSMVTLGCLVKGYFPEPVTVTWNSGSLSSGVHTFPAVLQSDLYTLSSSVTVPSSTWPSETVTCNVAHPASSTKVDKKIVPRDCGCKPCICTVPEVSSVFIFPPKPKDVLTITLTPKVTCVVVDISKDDPEVQFSWFVDDVEVHTAQTQPREEQFNSTFRSVSELPIMHQDWLNGKEFKCRVNSAAFPAPIEKTISKTKGRPKAPQVYTIPPPKEQMAKDKVSLTCMITDFFPEDITVEWQWNGQPAENYKNTQPIMDTDGSYFVYSKLNVQKSNWEAGNTFTCSVLHEGLHNHHTEKSLSHSPGK light: DIHMTQSPSSLSASVGDRVTITCRASENIYSYLAWYQQKPGKSPKLLVYNAKTLAEGVPSRFSGSGSGTDFTLTISSLQPEDFATYYCQHHYVTPLTFGQGTKLEIKRADAAPTVSIFPPSSEQLTSGGASVVCFLNNFYPKDINVKWKIDGSERQNGVLNSWTDQDSKDSTYSMSSTLTLTKDEYERHNSYTCEATHKTSTSPIVKSFNRNEC | – | – | – | – | – | – | – | – | – | – | – | – | 0.145 µg/mL | no binding (tested: 25 ug/ml) | no binding (tested: 25 ug/ml) | 8.93 µg/mL | no binding (tested: 25 ug/ml) | –
38E HuH3L4-m (antibody, mouse IgG1, kappa, Humanized variable regions of 38E HuH3L4 on mouse IgG1 / kappa constant regions) heavy: EVMLVESGGGLVQPGGSLRLSCAASGFIFSSYAMSWVRQAPETRLEWVATISSGGSNTYSPDTVKGRFTISRDNSKNTLYLQMNSLRAEDTAMYYCARYYGYYFDFWGQGTLLTVSSAKTTPPSVYPLAPGSAAQTNSMVTLGCLVKGYFPEPVTVTWNSGSLSSGVHTFPAVLQSDLYTLSSSVTVPSSTWPSETVTCNVAHPASSTKVDKKIVPRDCGCKPCICTVPEVSSVFIFPPKPKDVLTITLTPKVTCVVVDISKDDPEVQFSWFVDDVEVHTAQTQPREEQFNSTFRSVSELPIMHQDWLNGKEFKCRVNSAAFPAPIEKTISKTKGRPKAPQVYTIPPPKEQMAKDKVSLTCMITDFFPEDITVEWQWNGQPAENYKNTQPIMDTDGSYFVYSKLNVQKSNWEAGNTFTCSVLHEGLHNHHTEKSLSHSPGK light: DIHMTQSPSSLSASVGDRVTITCRASENIYSYLAWYQQKQGKSPQLLVYNAKTLAEGVPSRFSGSGSGTQFTLKINSLQPEDFATYYCQHHYVTPLTFGQGTKLEIKRADAAPTVSIFPPSSEQLTSGGASVVCFLNNFYPKDINVKWKIDGSERQNGVLNSWTDQDSKDSTYSMSSTLTLTKDEYERHNSYTCEATHKTSTSPIVKSFNRNEC | – | – | – | – | – | – | – | – | – | – | – | – | 0.103 µg/mL | no binding (tested: 25 ug/ml) | no binding (tested: 25 ug/ml) | 6.52 µg/mL | no binding (tested: 25 ug/ml) | –
38E10E1C11R (38E10E1C11 antibody recombinantly expressed by CHO cells) (antibody, mouse IgG1, kappa) heavy: not shown light: DIHMTQSPASLSASVGETVTITCRASENIYSYLAWYQQKQGKSPQLLVYNAKTLAEGVPSRFSGSGSGTQFSLKINSLQPEDFGSYYCQHHYVTPLTFGAGTKLELKRADAAPTVSIFPPSSEQLTSGGASVVCFLNNFYPKDINVKWKIDGSERQNGVLNSWTDQDSKDSTYSMSSTLTLTKDEYERHNSYTCEATHKTSTSPIVKSFNRNEC | – | – | – | – | – | – | – | – | – | – | – | – | – | – | – | – | – | ~0.2 µg/mL
